Laboratory results reported in article doi:10.1101/2020.10.06.327627 (bioRxiv, 2020).

Biological target: T1, human TRAP1 (mitochondrial Hsp90) (human, UniProt Q12931 60-704)
T1 sequence (looked up): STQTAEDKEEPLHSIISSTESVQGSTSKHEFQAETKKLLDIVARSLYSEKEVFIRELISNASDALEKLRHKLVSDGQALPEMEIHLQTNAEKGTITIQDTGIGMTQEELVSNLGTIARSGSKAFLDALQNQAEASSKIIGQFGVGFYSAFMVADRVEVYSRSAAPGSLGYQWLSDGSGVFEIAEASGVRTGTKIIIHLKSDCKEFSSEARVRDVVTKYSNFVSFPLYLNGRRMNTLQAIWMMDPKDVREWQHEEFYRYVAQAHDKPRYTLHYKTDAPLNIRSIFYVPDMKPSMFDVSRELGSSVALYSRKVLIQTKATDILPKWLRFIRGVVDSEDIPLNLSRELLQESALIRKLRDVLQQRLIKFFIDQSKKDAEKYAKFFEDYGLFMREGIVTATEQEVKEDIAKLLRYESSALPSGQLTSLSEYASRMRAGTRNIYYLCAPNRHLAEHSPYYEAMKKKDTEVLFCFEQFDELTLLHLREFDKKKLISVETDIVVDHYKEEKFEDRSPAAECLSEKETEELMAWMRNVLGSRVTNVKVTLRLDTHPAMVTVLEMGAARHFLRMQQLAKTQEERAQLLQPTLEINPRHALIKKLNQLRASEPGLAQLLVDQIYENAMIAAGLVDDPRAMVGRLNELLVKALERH
Assay: cell-based or functional assay

B1: SdhB160 (truncated human succinate dehydrogenase B subunit, truncated at K160) (domain or fragment, UniProt P21912 29-160, looked up)
chain: AQTAAATAPRIKKFAIYRWDPDKAGDKPHMQTYEVDLNKCGPMVLDALIKIKNEVDSTLTFRRSCREGICGSCAMNINGGNTLACTRRIDTNLNKVSKIYPLPHMYVIKDLVPDLSNFYAQYKSIEPYLKKK
  acceleration of TRAP1 ATPase activity, EC50: 6.6 µM
  acceleration of TRAP1 dimer closure, inter-protomer FRET assay, EC50: 3.6 µM
